Positions count from the first letter of the chain named. Blank lines part the entries; values can stand above or below the binder they belong to.
Tests used:
[1] = molecular target: cynomolgus IL-36R on BaF/3 cells (cynomolgus); assay: cell-based or functional assay
[2] = molecular target: T1, human IL-36R on cells (HEK293 cells transfected with full-length human IL-36R); NCI/ADR-RES cells; human … (human, UniProt Q9HB29 20-575); assay: cell-based or functional assay
T1 sequence (looked up): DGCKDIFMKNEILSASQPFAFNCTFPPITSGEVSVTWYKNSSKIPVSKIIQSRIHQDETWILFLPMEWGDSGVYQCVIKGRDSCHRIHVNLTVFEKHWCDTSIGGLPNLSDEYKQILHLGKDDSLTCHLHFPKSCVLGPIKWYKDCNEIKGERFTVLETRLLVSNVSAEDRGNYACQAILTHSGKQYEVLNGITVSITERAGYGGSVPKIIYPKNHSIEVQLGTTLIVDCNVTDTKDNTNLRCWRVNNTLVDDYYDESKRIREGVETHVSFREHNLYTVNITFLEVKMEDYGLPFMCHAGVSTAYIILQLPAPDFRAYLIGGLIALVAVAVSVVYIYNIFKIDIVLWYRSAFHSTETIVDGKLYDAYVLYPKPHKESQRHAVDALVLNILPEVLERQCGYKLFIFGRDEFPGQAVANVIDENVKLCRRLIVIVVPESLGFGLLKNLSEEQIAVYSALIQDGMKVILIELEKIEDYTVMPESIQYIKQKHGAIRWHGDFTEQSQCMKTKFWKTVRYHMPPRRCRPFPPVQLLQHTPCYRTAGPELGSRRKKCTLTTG

B1: Mouse 78C8 (antibody 78C8) (antibody, V domains shown)
VH: QVQLKESGPVLVAPSQSLSITCTVSGFSLTKFGVHWIRQTPGKGLEWLGVIWAGGPTNYNSALMSRLTISKDISQSQVFLRIDSLQTDDTAMYYCAKQIYYSTLVDYWGQGTSVTVSS
VL: DVLLTQTPLSLPVSLGDQASISCRSSQNIVHSNGNTYLQWYLQKPGQSPKLLIYKVSNRFSGVPDRFSGSGSGTDFTLKISRVEAEDLGVYYCFQGSHVPFTFGAGTKLELK
IC90 pNFκB, trun-IL-36a, BaF/3 cynomolgus IL-36R cells [1]: 1 nM
IC90 pNFκB, trun-IL-36b, BaF/3 cynomolgus IL-36R cells [1]: 2.1 nM
IC90 pNFκB, trun-IL-36g, BaF/3 cynomolgus IL-36R cells [1]: 1.5 nM

B3: antibody 67E7 (antibody, V domains shown)
VH: EVQLQQSGAEFVRPGASVKFSCTASGFNIKDDYIHWVRQRPEQGLEWVGRIDPANGNTKYAPKFQDKATITADTSSNTAYLQLSSLTSEDTAVYYCAKSFPNNYYSYDDAFAYWGQGTLVTVSA
VL: DIQMTQSPASQSASLGESVTFTCLASQTIGTWLGWYQQKPGKSPQLLIYRSTTLADGVPSRFSGSGSGTKFSFKISSLQAADFASYYCQQLYSAPYTFGGGTKLEIR
IC90 pNFκB, trun-IL-36a, BaF/3 cynomolgus IL-36R cells [1]: > 4 µM
IC90 pNFκB, trun-IL-36b, BaF/3 cynomolgus IL-36R cells [1]: > 333 nM
IC90 pNFκB, trun-IL-36g, BaF/3 cynomolgus IL-36R cells [1]: > 333 nM

B4: Mouse 81A1 (antibody 81A1) (antibody, V domains shown)
VH: QVQLKESGPGLVAPSQSLFITCTVSGFSLSSYEINWVRQVPGKGLEWLGVIWTGITTNYNSALISRLSISKDNSKSLVFLKMNSLQTDDTAIYYCARGTGTGFYYAMDYWGQGTSVTVSS
VL: DIQMTQTTSSLSASLGDRVTISCRASQDIYKYLNWYQQKPDGTLKLLIYYTSGLHSGVPSRFSGSGSGTDFSLTISNLEPEDIATYFCQQDSKFPWTFGGDTKLEIK
IC90 pNFκB, trun-IL-36a, BaF/3 cynomolgus IL-36R cells [1]: 0.6 nM
IC90 pNFκB, trun-IL-36b, BaF/3 cynomolgus IL-36R cells [1]: 0.9 nM
IC90 pNFκB, trun-IL-36g, BaF/3 cynomolgus IL-36R cells [1]: 1 nM

B5: Mouse 81B4 (antibody 81B4) (antibody, V domains shown)
VH: QVQLQQPGADFVRPGASMRLSCKASGYSFTSSWIHWVKQRPGQGLEWIGEINPGNVRTNYNENFRNKATLTVDKSSTTAYMQLRSLTSADSAVYYCTVVFYGEPYFPYWGQGTLVTVSA
VL: QIVLTQSPAIMSASLGERVTMTCTASSSVSSSYFHWYQQKPGSSPKLWIYRTSNLASGVPGRFSGSGSGTSYSLTISSMEAEDAATYYCHQFHRSPLTFGAGTKLELK
IC90 pNFκB, trun-IL-36a, BaF/3 cynomolgus IL-36R cells [1]: 2.4 nM
IC90 pNFκB, trun-IL-36b, BaF/3 cynomolgus IL-36R cells [1]: 3.5 nM
IC90 pNFκB, trun-IL-36g, BaF/3 cynomolgus IL-36R cells [1]: 5.1 nM
IC90 pNFκB, trun-IL-36g, human primary keratinocytes (NHK) [2]: 0.5 nM

B8: antibody 172C8 (antibody, V domains shown)
VH: EVQLQQSGPELVKPGASVKLSCKASGYTFTDNYMNWVRQSHGKSLEWIGRVNPSNGDTKYNQNFKGKATLTVDKSLSTAYMQLNGLTSEDSAVYYCGRTKNFYSSYSYDDAMDYWGQGTSVTVSS
VL: DIQMTQSPASQSASLGESVTFTCLASQTIGTWLAWYQQRPGKSPQLLIYAATSLADGVPSRFSGSGSGTQFSFNIRSLQAEDFASYYCQQVYTTPLTFGGGTKLEIK
IC90 pNFκB, trun-IL-36a, BaF/3 cynomolgus IL-36R cells [1]: > 4 µM
IC90 pNFκB, trun-IL-36b, BaF/3 cynomolgus IL-36R cells [1]: > 333 nM
IC90 pNFκB, trun-IL-36g, BaF/3 cynomolgus IL-36R cells [1]: > 333 nM

B9: Mouse 73C5 (antibody 73C5) (antibody, V domains shown)
VH: QVQLKESGPGLVAPSQSLSITCTVSGFSLTNYAVHWVRQFPGKGLEWLGVIWSDGSTDFNAPFKSRLSINKDNSKSQVFFKMNSLQIDDTAIYYCARKGGYSGSWFAYWGQGTLVTVSA
VL: DIVMTQSQKFLSTSVGVRVSVTCKASQDVGTNVLWYQQKIGQSPKPLIYSASYRHSGVPDRFTGSGSGTDFTLIISNVQSEDLAEYFCQQYSRYPLTFGPGTKLELK
IC90 pNFκB, trun-IL-36a, BaF/3 cynomolgus IL-36R cells [1]: 0.2 nM
IC90 pNFκB, trun-IL-36b, BaF/3 cynomolgus IL-36R cells [1]: 1.6 nM
IC90 pNFκB, trun-IL-36g, BaF/3 cynomolgus IL-36R cells [1]: 1.5 nM

Next, values leading:

IC90 pNFκB, trun-IL-36a, BaF/3 cynomolgus IL-36R cells [1]: > 4 µM
IC90 pNFκB, trun-IL-36b, BaF/3 cynomolgus IL-36R cells [1]: > 333 nM
IC90 pNFκB, trun-IL-36g, BaF/3 cynomolgus IL-36R cells [1]: > 333 nM
B2: antibody 89A12 (antibody, V domains shown)
VH: B3 VH with F11L, K19R, F20L, E42K, V48L, A61D, K63R, Q82H, N102D
VL: B3 VL with T22S, S51A, T53S, K70N, A81E, F83L, A94G

IC90 pNFκB, trun-IL-36a, BaF/3 cynomolgus IL-36R cells [1]: > 4 µM
IC90 pNFκB, trun-IL-36b, BaF/3 cynomolgus IL-36R cells [1]: > 333 nM
IC90 pNFκB, trun-IL-36g, BaF/3 cynomolgus IL-36R cells [1]: > 333 nM
B6: Mouse 33D10 (antibody 33D10) (antibody, V domains shown)
VH: QVQLQQSGTELLKPGASVKLSCKASGNTVTSYWMHWVKQRPGQGLEWIGEILPSTGRTNYNENFKGKAMLTVDKSSSTAYMQLSSLASEDSAVYYCTIVYFGNPWFAYWGQGTLVTVSA
VL: B5 VL with F34L, Q39K, I49V, R51S, G61V, F92H, L97V, A101S, L107M

IC90 pNFκB, trun-IL-36a, BaF/3 cynomolgus IL-36R cells [1]: > 4 µM
IC90 pNFκB, trun-IL-36b, BaF/3 cynomolgus IL-36R cells [1]: > 333 nM
IC90 pNFκB, trun-IL-36g, BaF/3 cynomolgus IL-36R cells [1]: > 333 nM
B7: antibody 76E10 (antibody, V domains shown)
VH: QVQLKESGPVLVAPSQSLSITCTVSGFSLTNYGVHWVRQPPGKGLEWLGVIWPVGSTNYNSALMSRLSIHKDNSKSQVFLRMNSLQTDDTAIYYCAKMDWDDFFDYWGQGTTLTVSS
VL: DIVMTQSQKFMSATVGGRVNITCKASQNVGRAVAWYQQKPGQSPKLLTHSASNRYTGVPDRFTGSGSGTDFTLTITNMQSEDLADYFCQQYSSYPLTFGAGTKLDLK

IC90 pNFκB, trun-IL-36a, BaF/3 cynomolgus IL-36R cells [1]: 0.5 nM
IC90 pNFκB, trun-IL-36b, BaF/3 cynomolgus IL-36R cells [1]: 0.7 nM
IC90 pNFκB, trun-IL-36g, BaF/3 cynomolgus IL-36R cells [1]: 0.8 nM
B10: Mouse 73F6 (antibody 73F6) (antibody, V domains shown)
VH: B9 VH with F59Y, I87T
VL: B9 VL with P46A, S76T
